Experimental findings from paper PMC8345930, “Quaternary Structure and Hetero-Oligomerization of Recombinant Human Small Heat Shock Protein HspB7 (cvHsp)” (International Journal of Molecular Sciences, 2021) are described below.

First the molecules themselves.
B4: recombinant human small heat shock protein HspB7 (cvHsp), wild type, untagged (natural protein)
chain: not shown
notes: HspB7 (cvHsp), human; full copy recloned from Addgene #63108 into pET23b(+) at NdeI and XhoI; single Cys126; calculated monomer weight 18.6 kDa; HspB7-D (small oligomers, probably dimers) and HspB7-L (mostly large oligomers) are two oligomeric preparations of the same construct; the assays tell them apart; also called cardiovascular Hsp; HspB7-D; source: E. coli Rosetta2 (DE3) pLysS, purified …

Series [1] deals with the molecule itself. Kind of series: cross-linking; disulfide cross-linking: reduced proteins alone or in equimolar mixture (15 µM each), 1 h at 42 °C, dialysed overnight at 37 °C against 50 mM Tris-HCl pH 8.0, 50 mM KCl, 0.1 mM PMSF; read by SDS-PAGE (HspB8) or urea gel electrophoresis (HspB6).
The target of series [2] is B4. Kind of series: SEC; oxidised (disulfide cross-linked) proteins alone or in equimolar mixture on Superdex 200 Increase GL 10/300; profile of the mixture compared with the arithmetic sum of the isolated proteins. The note with it: both partners purified. (In general: SEC sorts molecules by how far they enter the pores of the column.)
For series [3], the target named is B4. Kind of series: ELISA; sandwich: plate coated with monoclonal mouse anti-HspB6 antibody (clone 20-6) as capture; HspB6, HspB7 or their equimolar mixture added (25-400 ng of each protein per well), 1 h; HspB7 detected by rabbit polyclonal anti-HspB7 and HRP-conjugated anti-rabbit antibodies. The note with it: both partners purified.
Series [4] concerns the molecule itself. Kind of series: SEC; Δ13 and ΔSer deletion mutants of HspB7; analytical Superdex 200 Increase 10/30 GL, 50 mM phosphate pH 7.4, 150 mM NaCl.
Series [5] deals with the molecule itself. Kind of series: SEC; HspB7-D preparation (flow-through of phenyl sepharose, Fraction 1); analytical Superdex 200 Increase 10/30 GL, 50 mM phosphate pH 7.4, 150 mM NaCl; 20, 50 or 100 μg loaded.
Series [6] concerns the molecule itself. Kind of series: SEC; HspB7-L (0.6 mg/mL) reduced with 3 mM DTT, Cys126 modified with 8 mM iodoacetamide, then analytical SEC on Superdex 200 Increase.

B1: Cys-mutant of HspB6 (C46S/E116C) (natural protein, human, UniProt O14558 1-160, looked up)
chain: MEIPVPVQPSWLRRASAPLPGLSAPGRLFDQRFGEGLLEAELAALSPTTLAPYYLRAPSVALPVAQVPTDPGHFSVLLDVKHFSPEEIAVKVVGEHVEVHARHEERPDEHGFVARCFHRRYRLPPGVDPAAVTSALSPEGVLSIQAAPASAQAPPPAAAK
notes: HspB6, human, with the double mutation C46S/E116C; single Cys in the β7 strand at the position homologous to Cys137 of HspB1; also called HspB6 Cys; HspB6 Cys^Ox
On to B1, for which the binding result in series [1] and in series [2] was “binds” each time.

B2: wild-type HspB6 (natural protein, human, UniProt O14558 1-160, looked up)
chain: MEIPVPVQPSWLRRASAPLPGLSAPGRLFDQRFGEGLLEAELAALCPTTLAPYYLRAPSVALPVAQVPTDPGHFSVLLDVKHFSPEEIAVKVVGEHVEVHARHEERPDEHGFVAREFHRRYRLPPGVDPAAVTSALSPEGVLSIQAAPASAQAPPPAAAK
notes: HspB6, human, full-size wild type; The abstract says that the wild-type HspB6 was used in the ELISA
With B2, the binding result in series [3] is reported as “binds”.

B3: ΔSer mutant of HspB7 (lacking the polySer sequence, residues 17–29) (natural protein)
chain: not shown
notes: source: E. coli Rosetta2 (DE3) pLysS, purified
Regarding B3, in series [4], the binding result is listed as “binds”.

In general, stoichiometry N refers to the number of molecules, sites or subunits per partner or assembly. As for B4, the “stoichiometry N” value in series [5] is roughly 2.

B5: Cys-mutant of HspB8 (C10S/C99S/C195S/N138C) (natural protein, human, UniProt Q9UJY1 1-196, looked up)
chain: MADGQMPFSSHYPSRLRRDPFRDSPLSSRLLDDGFGMDPFPDDLTASWPDWALPRLSSAWPGTLRSGMVPRGPTATARFGVPAEGRTPPPFPGEPWKVSVNVHSFKPEELMVKTKDGYVEVSGKHEEKQQEGGIVSKCFTKKIQLPAEVDPVTVFASLSPEGLLIIEAPQVPPYSTFGESSFNNELPQDSQEVTST
notes: HspB8, human, with the four mutations C10S/C99S/C195S/N138C; single Cys in the β7 strand at the position homologous to Cys137 of HspB1; also called HspB8 Cys; HspB8 Cys^Ox
As to B5, in series [1], the binding result was “binds”.

B6: Δ13 mutant of HspB7 (lacking the first 13 residues) (domain or fragment)
chain: not shown
notes: HspB7 (cvHsp), human, lacking the first 13 residues; made by PCR from the pET23b(+) HspB7 plasmid (forward primer with an NdeI site, ATG before the codon of residue 14); The printed forward primer places a start codon (Met) directly before residue 14; source: E. coli Rosetta2 (DE3) pLysS, purified
As for B6, the binding result in series [4] is reported as “binds”.

B7: HspB7 with Cys126 modified by iodoacetamide (natural protein)
chain: not shown
modifications: Cys126 modified by iodoacetamide
notes: HspB7 (cvHsp), human; full copy from Addgene #63108 in pET23b(+); the single SH group (Cys126) modified by iodoacetamide; Same construct as m1, chemically modified at Cys126; also called SH Mod HspB7-L
Regarding B7, the binding result in series [6] is “binds”.
